Here are results for one molecule from US11033621B2, “Combination therapies targeting tumor-associated stroma or tumor cells” (BIOMED VALLEY DISCOVERIES, INC., priority 2014, dated 2021).

This assay deals with H460 cells. The assay can be described thus: H460 non-small cell lung carcinoma xenograft model. It is filed as in vivo, athymic nude mice. The following applies: combination partner Paclitaxel, Day 21. Here is the method: Animals were monitored for regression responses.
The statistical tests were not adjusted for multiple comparisons.
Cultured H460 cells were harvested during exponential growth and resuspended in phosphate buffered saline at a concentration of 1×10^8 cells/mL. 1.0×10^7 tumor cells were injected subcutaneously into the flank of athymic nude mice. Animals were euthanized when tumors reached the pre-determined volume endpoint of 2000 mm^3 or on the final day (Day 88), whichever came first.

B1: M830: TEM8 monoclonal antibody (hIgG1), VH SEQ ID NO:5, VL SEQ ID NO:6; Fab in Table 6 (antibody, V domains shown)
VH: EVQLVESGGGVVQPGRSVRLSCAASGFTFSTYTMHWVRQAPGKGLEWVAIISNDGSNKYYADPVRGRFTISRDNSKNTLYLQMNSLRAEDTAVYYCVRGSSWYRGNWFDPWGQGTLVTVSS
VL: DIQMTQSPSSLSASVGDRVTIACRASQTISRYLNWYQQKPGKAPKLLIYAASSLQSGVSSRFSGSGSGTEFTLTISSLQPEDFATYFCQQTYSPPITFGQGTRLEIKR
modifications: TEM830 mAb VH; TEM830 mAb VL
Turning to B1, the regression result is “(−61%”.
